The source of these data is US20140086913A1 (Gilead, published 2014).

For assay [1], the target named is T1, mouse ECD-DDR1-Fc (mouse; human, UniProt Q03146 22-414).
T1 construct: also called mouse DDR1-ECD; wild-type mouse DDR1-ECD; not shown: human IgG1 Fc of the vector pFuse-hIgG1-Fc1 (Invivogen)
T1 sequence: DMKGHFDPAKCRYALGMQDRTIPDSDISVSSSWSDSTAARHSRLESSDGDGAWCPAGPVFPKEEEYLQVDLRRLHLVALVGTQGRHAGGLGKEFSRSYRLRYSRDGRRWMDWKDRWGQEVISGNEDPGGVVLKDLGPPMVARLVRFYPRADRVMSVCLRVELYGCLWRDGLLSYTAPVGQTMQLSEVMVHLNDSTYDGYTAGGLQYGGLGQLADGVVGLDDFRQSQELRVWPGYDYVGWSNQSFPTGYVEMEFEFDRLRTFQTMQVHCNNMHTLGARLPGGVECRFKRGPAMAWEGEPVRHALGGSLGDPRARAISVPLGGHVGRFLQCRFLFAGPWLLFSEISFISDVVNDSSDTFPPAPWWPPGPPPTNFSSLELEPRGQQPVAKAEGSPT
The assay is described as follows: ELISA, coated antigen. The procedure, abridged: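 Plates coated overnight at 4° C with 2 μg/mL purified tagged DDR1 ECD protein, BSA-blocked; serially diluted murine anti-DDR1 mAbs bound 1 hr at room temperature, detected with anti-mouse IgG-HRP and TMB (OD 450). Apparent KD taken as C-parameter of 4-parameter logistic fit of OD versus antibody concentration.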

For assay [2], the target named is T2, mouse DDR1 stably expressed on HEK293 cells (mouse, UniProt Q03146 20-911).
T2 construct: whole, on cells; also called murine DDR1
T2 sequence (looked up): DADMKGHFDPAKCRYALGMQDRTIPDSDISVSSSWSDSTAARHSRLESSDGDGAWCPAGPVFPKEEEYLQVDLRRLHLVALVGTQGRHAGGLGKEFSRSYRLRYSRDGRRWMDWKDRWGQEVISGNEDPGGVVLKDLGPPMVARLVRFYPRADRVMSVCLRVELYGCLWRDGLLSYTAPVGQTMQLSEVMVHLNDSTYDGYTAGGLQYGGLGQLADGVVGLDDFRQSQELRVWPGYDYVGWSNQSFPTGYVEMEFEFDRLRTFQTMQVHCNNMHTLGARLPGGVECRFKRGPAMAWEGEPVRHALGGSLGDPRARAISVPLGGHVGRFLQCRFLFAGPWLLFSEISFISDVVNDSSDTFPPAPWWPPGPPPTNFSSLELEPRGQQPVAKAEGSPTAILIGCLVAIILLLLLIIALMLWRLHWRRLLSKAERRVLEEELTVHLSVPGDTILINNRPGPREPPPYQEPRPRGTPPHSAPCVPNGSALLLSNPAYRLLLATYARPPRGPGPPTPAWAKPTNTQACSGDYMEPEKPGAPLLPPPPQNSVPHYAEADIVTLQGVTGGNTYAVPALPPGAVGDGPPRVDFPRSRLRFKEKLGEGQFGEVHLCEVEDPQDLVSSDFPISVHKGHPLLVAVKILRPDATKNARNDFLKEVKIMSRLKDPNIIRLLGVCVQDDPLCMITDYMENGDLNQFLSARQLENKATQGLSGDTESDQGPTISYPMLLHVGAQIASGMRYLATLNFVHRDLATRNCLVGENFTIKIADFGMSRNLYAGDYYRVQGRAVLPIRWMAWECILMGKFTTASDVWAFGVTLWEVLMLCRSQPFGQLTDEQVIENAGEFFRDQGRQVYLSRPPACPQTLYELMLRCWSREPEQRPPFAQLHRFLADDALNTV
The assay is described as follows: flow cytometry on transfected HEK293 cells. (In flow cytometry, cells or beads pass a laser one at a time.)

B1: AB2041 (antibody, V domains shown)
VH: QVQLHQSGSELAKPGASVKMSCKASGYIFTTYWIHWLKQRPGQGLEWIGFINPDTDYTEYNQKFKDKATLTADKSSNTAYVQLSSLTSEDSAVYYCARGNYGYDGLVYWGLGTLVTVSA
VL: SIVMTQTPKFLLVSAGDRVTITCKASQSVSTDVAWYQQKPGQSPKLLIYYASNRYTGVPDRFTGSGYGTDFTFTISTVQAEDLAVYFCQQDYNSYTFGGGTKLEIKR
notes: mouse hybridoma mAb
As for B1, the binding result in assay [1] is listed as “no binding”; in assay [2], “binds”.
